Results from patent US20150057331A1.

Experiments:
CCR5 (human) = CCR5 (human) (UniProt P51681); experiment: cell-based or functional assay
CD4 (human) = CD4 (human) (UniProt P01730); experiment: cell-based or functional assay

Row | Substance | ATP release from primary human macrophages (luminescence assay), peak fold change against vehicle (CCR5 (human)) | ATP release from primary human macrophages (luminescence assay), peak fold change against vehicle (CD4 (human))
1 | Monomeric gp120BaL (R5-tropic) | 1.8 fold | 1.8 fold
2 | Monomeric gp120SF162 (R5-tropic) | 1.8 fold | 1.8 fold
